The record followed here is paper PMC6082628.

Data set [1] addresses T1, Act1 SEFIR (mouse, UniProt Q8N7N6 391-537).
T1 sequence: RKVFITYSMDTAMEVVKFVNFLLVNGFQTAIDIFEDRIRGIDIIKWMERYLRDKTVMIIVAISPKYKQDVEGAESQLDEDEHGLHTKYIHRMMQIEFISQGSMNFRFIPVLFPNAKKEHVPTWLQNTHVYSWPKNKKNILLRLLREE
Description: EMSA. Background: In EMSA bound probe runs differently from free probe, usually more slowly.

For data set [2], the target named is T1, Act1 SEFIR. Description: competition.
Data set [3] addresses T1, Act1 SEFIR. Description: competition. The source holds these as a separate data set.
Data set [4] addresses T1, Act1 SEFIR. Description: EMSA. This is another data set of the same source.

B1: Cxcl1 220-II (structured_RNA)
RNA: GUUGGUAGGGCAUAAUGCCCUUUUACAUUCUUUAACCCUGUUUCUCCUGGUCUCGUCUCGCUCGGGACAGAGACGUUCAAAGGACUGUUACAAAUGAAGUAAAAAUAAAAG
As for B1, the binding result with Act1 SEFIR [1] was “binds”.

Turning to CCUUGGACAUUUUGUGUCUAGUUGGUAAAACAUAAUGCCCUUUUACA (ssRNA) [SBE mutant C], the binding result with Act1 SEFIR [1] is reported as “no binding”.

Consider CCUUGGACAUUUUGUGUCUAGUUGGUAAAACAUAAUGCCCUUUUACA (ssRNA, 2'-O-methyl on the first three residues at 5' and 3' ends (as ordered)) [SBE mutant C aptamer (competitor)], for which the binding result with Act1 SEFIR [2] was “no binding”.

Turning to CCUUGGACAUUUUGUGUCUAGUUGGUAGGGCAUAAUGCCCUUUUACA (structured_RNA, 2'-O-methyl on the first three residues at 5' and 3' ends (as ordered)) [SBE WT aptamer (competitor)], in the data set with Act1 SEFIR [3], the binding result is listed as “binds”.

In the case of CCUUGGACAUUUUGUGUCUAGUUGGUAGGGCAUAAUGGGGUUUUACA (ssRNA) [Stem-loop C CCC to GGG], the binding result in the data set with Act1 SEFIR [1] is “no binding”.

Take CCUUGGACAUUUUGUGUCUAGUUGGUACCCCAUAAUGGGGUUUUACA (structured_RNA) [SBE stem swap]: in the data set with Act1 SEFIR [4], the binding result was “binds”.
